test: yeast display, Sf9 membrane polyspecificity reagent, FACS + sequencing; frameworks hold sequencing errors
Outline: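 After 36–48 hours of galactose induction, yeast (Saccharomyces cerevisiae BJ5465) displaying a synthetic nanobody library were stained at 4 °C for 1 hour with 10% biotinylated, detergent-solubilized Sf9 membrane reagent. Streptavidin microbeads enriched the stained cells before FACS sorting into low and high (top ~1%) gates on anti-HA and streptavidin fluorescence. Each clone's polyreactivity label reflects its gate of origin.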

With “QVQLVETGGGLVQAGGSLRLSCAASGFIFPGNMGWDRQAPGKDRELVAAISWSGGSTRYADSVKGRFTISRDNAKNTVYLQMNSLKPEDTAVYYCAASLSGKRFTKRYYWGQGTQVTVSS” as the sequence, how does the “polyreactivity (PSR sort gate)” value read?
Its value is “high polyreactivity”.

With “QVQLVETGGGLVQAGGSLRLSCAASGFIFVLNAMGWDRQAPGKEMEFVAAITRSGGSTYYADSVKGRFTISRDNAKNNVYLPMNSLKPEVTAVYYCAVLYHSRDRYTYRDEDYWGQGTQVTVSS” as the sequence, how does the “polyreactivity (PSR sort gate)” value read?
The value was “low polyreactivity”.

With “QVQLVETGGGLVQAGGSLRLSCAASGFIGSNTMGWYRQAPGKERELVAAISWSGGSTYYADSVKGRFTISRDNAKNTVYLQMNSLKPEDSAVYYCAARRNSRARRTFGYWGQGTQVSVSS” as the sequence, how does the “polyreactivity (PSR sort gate)” value read?
Its value is “high polyreactivity”.

For “QVQLVETGGGLVQAGGSLRLSCAASGFIQSGYAMGWYRQAPGKERELVATITWRDGSTYYADSVKGRYTISRDNAKNTVYLQKNSLKPEDTEVYYCAVAAYSRRSPYYHYNYWGQGTQVTVSS”, which “polyreactivity (PSR sort gate)” value is on record?
Its value is “high polyreactivity”.

Which “polyreactivity (PSR sort gate)” value does the source give for “QVQLVETGGGLVQAGGSLRLSCAASGFTFRFYAMGWSRQPPGKERELVAAISRGGSTYYADSVKVRFTISRYNEKNTVYLQMNSLKPEDTAVYYCAKRGRYGGYWGQGTQVTVSS” here?
Its value is “high polyreactivity”.

With “QVQLVETGGGLVQAGGSLRLSCAASGFTLYYYARGWYRQAPGKERELVAAITARGVSTYADSVKGRFTISRDNAKNTVYLQMNSLKPEDTAVYYCAADRRYNVIGEFGYWGQGTQVTVSS” as the sequence, how does the “polyreactivity (PSR sort gate)” value read?
Its value is “low polyreactivity”.

Which “polyreactivity (PSR sort gate)” value does the source give for “QVQLVETGGGLVQAGGSLRLSCAASGGIFVANAMGWYRQAPGKERELVAAISKRGGSTTYADSVKGRFTISRDNAKHTVYLQMNRLKPEDTAVYYCAKVVSPVYLYPSGYDYWGQGTQVTVSS” here?
Its value is “low polyreactivity”.

For “QVQLVETGGGLVQAGGSLRLSCAASGITLYFYAMGWSRQAPGKEREMVAGISGSVGSTHYADSVKGRFTISRDNAKNTVYSQMNSLKPEDTAVYYCDAAQVGYYVASVTYGYWGQGTQVTVSS”, which “polyreactivity (PSR sort gate)” value is on record?
Its value is “high polyreactivity”.

For “QVQLVETGGGLVQAGGSLRLSCAASGLIFTINAMGWYRQAPGKERELVAAITNGDSTHYADSVKGRFTISRDNAKNTVYLQMNSLKPEDTAVYYCAARSYTYYGLRFGYWGQGTQVTVSS”, which “polyreactivity (PSR sort gate)” value is on record?
The value was “high polyreactivity”.

Which “polyreactivity (PSR sort gate)” value does the source give for “QVQLVETGGGLVQAGGSLRLSCAASGLTFYYYTMGWYRQAPGKERELVAAITSGGSTYYADSVKGRFTISRDNAKNTVYLQMNSLKPEDTAVYYCAAVPSRYGRYRYYYWGQGTQVTVSS” here?
Its value is “high polyreactivity”.

Which “polyreactivity (PSR sort gate)” value does the source give for “QVQLVETGGGLVQAGGSLRLSCAASGNTFGDYAMGWYRQAPGKERELVAAISRSGGSTSYADSVKGRFTISRDNAKNTVYLQMNSLKPADTAVYYCAAYWQRFGYDYWGQGTQVTGSS” here?
Its value is “low polyreactivity”.

With “QVQLVETGGGLVQAGGSLRLSCAASGNTFKYYAMGWYRQAPGKERELVAAISYSGGSTYYADSVKGRFTISRDNAKNTVYLQMNSLKPEDTAVYYCAADLDSERYYWGQGTQVTVSS” as the sequence, how does the “polyreactivity (PSR sort gate)” value read?
Its value is “low polyreactivity”.

For “QVQLVETGGGLVQAGGSLRLSCAASGRIFPFYAMGWYRQAPGKERELVAAISWNGGSTFYADSVKGRFTISRDNAKNTVYLQMHSLKPEDTAVYYCNADFRPAYTYDYWGQGTQVTVSS”, which “polyreactivity (PSR sort gate)” value is on record?
The value was “low polyreactivity”.

For “QVQLVETGGGLVQAGGSLRLSCAASGRIFTYYAMGWYRQAPGKERELVAGISSRGTRTYYADSVKGRFTISRDNAKNTVYLQMNSLKPDDTAVYYCAAYPQFWYWDYNYWGQGTQVTVSS”, which “polyreactivity (PSR sort gate)” value is on record?
The value was “high polyreactivity”.

For “QVQLVETGGGLVQAGGSLRLSCAASGRIFYYYAMGWYRQAPGKERELVAAITRGGGTYYADSVKGRFTISRDNAKNTVYLQMYSLKPEDTAVYYCAKRGPPESHHPYRYRFDYWGQGPQVTVSS”, which “polyreactivity (PSR sort gate)” value is on record?
The value was “low polyreactivity”.

For “QVQLVETGGGLVQAGGSLRLSCAASGRIIDTYAMGWYRQAPGKERELVAAITRRGGSTYYADSVKGRFTISRDNAKNTVYLQMNSLKPEDTAVYYCAKSLVNRHYDYWGQGTQVTVSS”, which “polyreactivity (PSR sort gate)” value is on record?
Its value is “low polyreactivity”.

Which “polyreactivity (PSR sort gate)” value does the source give for “QVQLVETGGGLVQAGGSLRLSCAASGRTFKFYAMGWYRQAPGKEREFVAVINRSGVNTHYADSVKVRFTISRDNAKNTVYLQMNSLKPEDTAVYYCAKYVYPLDHVAGYDYWGQGTQVTVSS” here?
The value was “low polyreactivity”.

For “QVQLVETGGGLVQAGGSLRLSCAASGRTFSGYAMGWSRQAPGKERELVASITWSGGSTYYADSVKGRFTISRDNAKNTVYLQMNSLKPDDTAVYYCARDSPRGRVGFNYWGQATQVTVSS”, which “polyreactivity (PSR sort gate)” value is on record?
The value was “low polyreactivity”.

With “QVQLVETGGGLVQAGGSLRLSCAASGRTIVYYDMGWYRQAPGKEREFVSTITSSGGSTYYADSVKGRFTISRDNAKNTVYVQMNSLKPEDTAVYYCAAYPYIRYSKVSKYYYWGQGTQVTVSS” as the sequence, how does the “polyreactivity (PSR sort gate)” value read?
Its value is “high polyreactivity”.

For “QVQLVETGGGLVQAGGSLRLSCAASGRTLYYYAMGWYRQAPGKERELVAAITRSGGSTYYADSVKGRFTISRDNAKNTVYLQMNSLKPEDTEVYYCNKYGYKGGVGYDYWGQGTQVTVSS”, which “polyreactivity (PSR sort gate)” value is on record?
The value was “high polyreactivity”.

For “QVQLVETGGGLVQAGGSLRLSCAASGSIFASYAMGWYRQAPGKERELVAAITTSGGRTYYADSVKGRFTISRDNAKNTVYLQMNSLKPEDTAVYYCAVRYRGYGYDWGQGTQVTVSS”, which “polyreactivity (PSR sort gate)” value is on record?
The value was “high polyreactivity”.

For “QVQLVETGGGLVQAGGSLRLSCAASGSIFERYAMGWYRQAPGKEREFVATITSGGGRTYYADSVKGRFTISRDNAKNTVYLQMNSLKPEDTAVYYCAAASYRRQPFNYWGQGTQVTVSS”, which “polyreactivity (PSR sort gate)” value is on record?
The value was “high polyreactivity”.

With “QVQLVETGGGLVQAGGSLRLSCAASGSIFEYNGMGWYRQAPGKERELVAAITTTGTTDYADSVKGRFTISRDNAKNTVYLLMNSLKPEDTAVYYCAADYTYYYKGEYDYWGQGTQVTVSS” as the sequence, how does the “polyreactivity (PSR sort gate)” value read?
Its value is “low polyreactivity”.

Which “polyreactivity (PSR sort gate)” value does the source give for “QVQLVETGGGLVQAGGSLRLSCAASGSIFGGYAMGWYRQAPGKERELVAGITRSGGSTYYADSVKGRFTISRDNAKNTVYLQMNSLKPEDTAVYYCAVEIQFYRSPRKVRSYDYWGQGTQVTVSS” here?
Its value is “low polyreactivity”.

For “QVQLVETGGGLVQAGGSLRLSCAASGSIFITYLMGWNRQAPGKERELVDGISRSGGSTYYADSVKGRFTISRDNAMNTVYLQMNSLKPEDTAVYYCAAFFLRRPGSSGLRLLGQGTQVTVSS”, which “polyreactivity (PSR sort gate)” value is on record?
The value was “high polyreactivity”.

Which “polyreactivity (PSR sort gate)” value does the source give for “QVQLVETGGGLVQAGGSLRLSCAASGSIFTRYVMGWYRQAPGKERELVAAISRSSGRTYYADSVKGRFTISRDNAKNTVYLQMNSLKPEDTAVYYCAAYAVESYKYDYWGQGTQVTVSS” here?
The value was “high polyreactivity”.

For “QVQLVETGGGLVQAGGSLRLSCAASGSIFVPYGMGWYRQAPGKERELVAAIRKRGSSTYYADSVKWRFTNSRDNAKNTVYLQMNSLKPEDTAVYYCASTWVSVWYRYDYWGQGTQVTVSS”, which “polyreactivity (PSR sort gate)” value is on record?
The value was “high polyreactivity”.

Which “polyreactivity (PSR sort gate)” value does the source give for “QVQLVETGGGLVQAGGSLRLSCAASGSIQWNAMGWYRQAPGKERELVAVINTGGSTYADSVKGRFTISRDNAKNTVYLQMNMLKPEDTAVFYCAARVPFTLLKGKQYGYWGQGTQVTVSS” here?
The value was “low polyreactivity”.

Which “polyreactivity (PSR sort gate)” value does the source give for “QVQLVETGGGLVQAGGSLRLSCAASGSNFLPNAMGWYRQAPGKERELVARISYSGGNTYYADSVKGRFTISRDNAKNTVYLQMNSLKPEDTAVYYCATSHYYNDYTGRRYYYWGQGTQVTVSS” here?
Its value is “high polyreactivity”.

For “QVQLVETGGGLVQAGGSLRLSCAASGSTFGINAMGWYRQAPGKERELVAAITASGCRTYYADSVKGRFTISRDNAKNTVYLQMNSLKPEDNAVYYCAARGTYYRRYDYWGQGTQVTVSS”, which “polyreactivity (PSR sort gate)” value is on record?
The value was “low polyreactivity”.

Which “polyreactivity (PSR sort gate)” value does the source give for “QVQLVETGGGLVQAGGSLRLSCAASGSTFQPYAMGWYRQAPGKERELVAAIRSIAGSTYYADSVKGRFTISRDNAKITVYLQMNILKPDDTAVYYCAADWWRVEMDYWGQGTQVTVSS” here?
Its value is “low polyreactivity”.

With “QVQLVETGGGLVQAGGSLRLSCAASGSTFVYNAMGWYRQAPGKERELVASITRSGSSTYYADSVKGRFTISRDNAKNTVYLQMNSLKPEDTAVYYCAVRYSVLSNYRYYYWGQGTQVTVSS” as the sequence, how does the “polyreactivity (PSR sort gate)” value read?
The value was “low polyreactivity”.

Which “polyreactivity (PSR sort gate)” value does the source give for “QVQLVETGGGLVQAGGSLRLSCAASGTIFKKYAMGWYRQAPGKERELVAAITRGTYYADSVKGRFTISRDNAKNTVYLQMNSLIPEDTAVYYFNREYWGRGYYRVRGEYDYWGQGTQVTVSS” here?
Its value is “low polyreactivity”.

Which “polyreactivity (PSR sort gate)” value does the source give for “QVQLVETGGGLVQAGGSLRLSCAATGLNFWLYAMAWYRQAPGKEREFVAVISWSGGTTYYADSVKGLFTISRDYAKNTVYLTMTTLIPEDTAVYFCAAQVCYYTNYREFDYWGQGTQVTVSS” here?
The value was “low polyreactivity”.

Which “polyreactivity (PSR sort gate)” value does the source give for “QVQLVETGGGLVQAGGSLRLSCAPSGFIFYRNTMGWYRQAPGKERELDATISRRGGSTYYADSVKGRFTISRDNAKNTVYLQMNSLKPEDTAVYYCADGPRFSYYTHRYGYWGEGTQVTVSS” here?
The value was “high polyreactivity”.

For “QVQLVETGGGLVQAGGSLRLSGAASGRIFWVNAMGWYRQAPGKERELVAVISRGGSTTYADSVKGRFTISRDNAKNTVYLKMNSLKPEDTAVYYCAADAYRHAFLYYGYDYLGQGTQVTVSS”, which “polyreactivity (PSR sort gate)” value is on record?
The value was “low polyreactivity”.

Which “polyreactivity (PSR sort gate)” value does the source give for “QVQLVETGGGLVQAGGTLRLSCADSGFTFHQYTMGWYIPAPGKERELVAAITGTGDTYYADSVKGRFTISRDNAKNTVYLQMNSLKPEDTAVYYCNALYVYRSVANFDYWGQGTQVTVSS” here?
Its value is “high polyreactivity”.

Which “polyreactivity (PSR sort gate)” value does the source give for “QVQLVETGGGLVQAVGSLRLSCAASGYTFLLYAMGWYRQAPGKERELVASISWNVGSTYYADSVKGRFTISRDNAKNTVYLQMNSLKPEDTAVYYCARGYERPRVATFHRFDYWGLGTQVTVSS” here?
Its value is “low polyreactivity”.

Which “polyreactivity (PSR sort gate)” value does the source give for “QVQLVETGGGLVRAGGSLRLSCAASGRPFGRYAMGWYRQGPGKETELVAAITRTGITNYEVSVKGRFTISRDNAKNTVYLHMNSLNPEDTAVYYGAARRWLNCYGTGYGYWGQGTLVTVSS” here?
The value was “high polyreactivity”.

For “QVQLVETGGGVVHAGGSLRLSCAASGRIFRVDDMGWYRKAPGQERELVATINPTGGSTSYADSVKGRFTNSRDNAKNTVYLQMNSLTTEDTAVYYCAADCWYSVRKNWSRSGSFPFDYWRQGTQVTVSS”, which “polyreactivity (PSR sort gate)” value is on record?
The value was “high polyreactivity”.

Which “polyreactivity (PSR sort gate)” value does the source give for “QVQLVETGGRLVQAGGSLRLSCAASGFTFWTYAMGWYRQAPGKERELVAAISTSGGSTYYADSVKGRFTISRDNAKNTVYLQMNSLKPEDTAVYYCSAYAIGEHFRARYGYWGQGTQVTVSS” here?
The value was “high polyreactivity”.

For “QVQLVETGGRLVQAGGSLRLSCAASGSTFDIYVIGWSRQAPGKERELVAAISRVGNTSYADSVKGRFTISRDNAKNTVYLQMNSLIPEDTAVYYCAADAPSWYDRQYDYWGQGTQVTVSS”, which “polyreactivity (PSR sort gate)” value is on record?
Its value is “low polyreactivity”.

For “QVQLVETGGVLVQAGGSLRLSCAASGRTFVYNAMGWYRHAPGKEREFVAAIDGGTGSTYYADSVKGRFTISRDNAKNTVYLQMNSLKPEDTAVYYCAVETYGGGYPVTYDYWGQGTQVTVSS”, which “polyreactivity (PSR sort gate)” value is on record?
The value was “low polyreactivity”.

— the nanobody polyreactivity screen of Harvey et al. (2022)
